{"source": "paper PMC9873690", "about": "“Structural insights into the elevator-type transport mechanism of a bacterial ZIP metal transporter” (Nature Communications, 2023)", "proteins": {"B1": {"name": "BbZIP L138C/M295C variant (natural protein)", "chain": "MNQPSSLAADLRGAWHAQAQSHPLITLGLAASAAGVVLLLVAGIVNALTGENRVHVGYAVLGGAAGFAATALGALMALGLRAISARTQDAMLGFAAGMMLAASAFSLILPGLDAAGTIVGPGPAAAAVVALGLGLGVCLMLGLDYFTPHEHERTGHQGPEAARVNRVWLFVLTIILHNLPEGMAIGVSFATGDLRIGLPLTSAIAIQDVPEGLAVALALRAVGLPIGRAVLVAVASGLMEPLGALVGVGISSGFALAYPISMGLAAGAMIFVVSHEVIPETHRNGHETTATVGLCAGFALMMFLDTALG", "notes": "Purified protein was detected with the anti-Histag antibody; in the membrane fraction it was detected with a custom monoclonal antibody against BbZIP; source: E. coli C41 (DE3) pLysS, purified in DDM (1 mM TCEP except in the last size-exclusion step); also in the spheroplast-derived membrane fraction of E. coli cells; not shown: His-tag, N-terminal, kept"}}, "target": "the molecule itself", "assay": "cross-linking; disulfide cross-linking of variants purified in DDM with 50 µM Cu(II)-(1,10-phenanthroline)3 at 25 °C; non-reducing SDS-PAGE and Western blot with anti-Histag antibody", "data": [{"protein": "B1", "values": [{"measurement": "stoichiometry N", "value": 2}]}]}
